Entries after “also recorded” stand apart in the source; their conditions may differ.
B1: humanized SMO antibody No. 7: humanized SMO antibody, VH SEQ ID NO: 23 and VL SEQ ID NO: 28 (antibody, V domains shown)
VH: QVQLVQSGAEVKKPGASVKVSCKASGYTFTEYTMHWVRQAPGQRLEWMGGINPNTGDTRYNQKFKGRVTITVDKSASTAYMELSSLRSEDTAVYYCARDYYGSPFVYWGQGTLVTVSS
VL: DIVMTQSPLSLPVTPGEPASISCRSSQSIVHSSGYTFLDWYLQKPGQSPQLLIYKVSNRFSGVPDRFSGSGSGTDFTLKISRVEAEDVGVYYCFQGSHVPLTFGGGTKVEIK
modifications: huSM01-21-07 VH; huSM01-21-07 VL
B2: humanized SMO antibody No. 17: humanized SMO antibody, VH SEQ ID NO: 26 and VL SEQ ID NO: 29 (antibody, V domains shown)
VH: EVQLVQSGAEVKKPGATVKISCKVSGYTFTEYTMHWVQQAPGKGLEWMGGINPNTGDTRYNQKFKGRVTITVDKSTDTAYMELSSLRSEDTAVYYCARDYYGSPFVYWGQGTLVTVSS
VL: DIQMTQSPSSLSASVGDRVTITCRSSQSIVHSSGYTFLDWYQQKPGKAPKLLIYKVSNRFSGVPSRFSGSGSGTDFTLTISSLQPEDFATYYCFQGSHVPLTFGQGTKVEIK
modifications: huSM01-21-17 VH; huSM01-21-15 VL
B3: humanized SMO antibody No. 16: humanized SMO antibody, VH SEQ ID NO: 25 and VL SEQ ID NO: 29 (antibody, V domains shown)
VH: QVQLVQSGAEVKKPGASVKVSCKASGYTFTEYTMHWVRQAPGQGLEWMGGINPNTGDTRYNQKFKGRVTMTVDKSTSTVYMELSSLRSEDTAVYYCARDYYGSPFVYWGQGTLVTVSS
VL: DIQMTQSPSSLSASVGDRVTITCRSSQSIVHSSGYTFLDWYQQKPGKAPKLLIYKVSNRFSGVPSRFSGSGSGTDFTLTISSLQPEDFATYYCFQGSHVPLTFGQGTKVEIK
modifications: huSM01-21-16 VH; huSM01-21-15 VL
B4: humanized SMO antibody No. 15: humanized SMO antibody, VH SEQ ID NO: 24 and VL SEQ ID NO: 29 (antibody, V domains shown)
VH: QVQLVQSGAEVKKPGASVKVSCKASGYTFTEYTMHWVRQAPGQRLEWMGGINPNTGDTRYNQKFKGRVTITVDKSASTAYMELSSLRSEDTAVYYCARDYYGSPFVYWGQGTLVTVSS
VL: DIQMTQSPSSLSASVGDRVTITCRSSQSIVHSSGYTFLDWYQQKPGKAPKLLIYKVSNRFSGVPSRFSGSGSGTDFTLTISSLQPEDFATYYCFQGSHVPLTFGQGTKVEIK
modifications: huSM01-21-15 VH; huSM01-21-15 VL

Tests used:
Type in all cases: cell-based
[1] = system: SHH-induced GLI transcriptional activity; assay: NIH3T3-GLI reporter assay, humanized SMO antibodies; conditions: NIH3T3-GLI cells, Sonic hedgehog peptide 15 h, 10 and 20 μg/ml antibody 6 h
Protocol: GLI Repoter-NIH3T3 cell line was purchased from BPS Bioscience (CA, USA).
After NIH3T3-GLI cells having GLI transcriptional activity were plated in a 96-well plate at a density of 1×10^4 cells/cm^2, 2% BCS was treated with Sonic hedgehog peptide. Following 15 h, the cells were treated with different concentrations (10 and 20 μg/ml) of each of humanized antibody Nos. 5 (Production Example 6), 7 (Production Example 7), 15 (Production Example 8), 16 (Production Example 9), and 17 (Production Example 10) for 6 h. GLI1 Reporter activity (%) was measured through luminescence using a Reporter assay kit (Promega, WI, USA). The above procedure was repeated except that the SMO small-molecule inhibitor vismodegib or erismodegib was used as a positive control instead of the inventive SMO antibody.

GLI1 = assay: Western blotting of HCT116 cell line treated with humanized SMO antibodies; conditions: HCT116, 10 and 20 μg/ml, serum free media
Protocol: (§1) HCT116 cell line was purchased from the Korean Cell Line Bank. 24 h after cells were plated in a […] at a density of 5×10^5 cells/cm^2, they were treated with different concentrations (10 and 20 μg/ml) of each of humanized SMO antibody Nos. 5, 7, 15, 16, and 17 in serum free media.
(§2) Cells were disrupted by a combination of mechanical homogenization and sonication in a lysis buffer (7 M urea, 2 M thiourea, 4% CHAPS, 40 mM Tris, 100 mM DTT) supplemented with protease, followed by centrifugation at 15,000 rpm and 4° C. for 20 min. Proteins in the supernatant were quantified with NanoDrop by bicinchoninic acid (BCA) assay.
(§3) 30 μg of the proteins isolated from the collected tissues were subjected to electrophoresis, transferred to a PVDF membrane, labeled with anti-GLI1 antibody (cell signaling, MA, USA), anti-SMO antibody (Santa Cruz, CA, USA), and anti β-actin antibody as primary antibodies and an HRP-conjugated anti-rabbit antibody as a secondary antibody, and detected by chemiluminescence staining. The expression levels of SMO protein were measured by the enhanced chemiluminescence (ECL) method.

SMO = assay: as above; conditions: HCT116, 10 and 20 μg/ml, serum free media
Protocol: as §1, §2, §3

HCT116 cell line = assay: Transwell migration assay; conditions: HCT116, 10 μg/ml, 48 h
Protocol: After HCT116 cell line was plated in a transwell, each of humanized SMO antibody Nos. 7, 15, 16, and 17 was added at a concentration of 10 μg/ml. Following 48 h, cell motility was measured using a Diff-Quik kit.

Row | Molecule | transcriptional activity of GLI (GLI1 Reporter activity) [1] | expression level of GLI1 protein (GLI1) | expression level of SMO protein (SMO) | cell motility (HCT116 cell line) | cell motility compared to treatment with vismodegib or erismodegib (positive control) (HCT116 cell line)
1 | B1 | significantly inhibited the transcriptional activity of GLI; also recorded: effectively inhibit the SHH-induced GLI transcriptional activity | reduce the expression levels | reduce the expression levels | reduction in cell motility | –
2 | B2 | significantly inhibited the transcriptional activity of GLI; also recorded: effectively inhibit the SHH-induced GLI transcriptional activity | reduce the expression levels | reduce the expression levels | reduction in cell motility; also recorded: highest activities to reduce cell mobility | significantly inhibited cell motility
3 | B3 | significantly inhibited the transcriptional activity of GLI; also recorded: effectively inhibit the SHH-induced GLI transcriptional activity | reduce the expression levels | reduce the expression levels | reduction in cell motility; also recorded: highest activities to reduce cell mobility | significantly inhibited cell motility
4 | B4 | significantly inhibited the transcriptional activity of GLI; also recorded: effectively inhibit the SHH-induced GLI transcriptional activity | reduce the expression levels | reduce the expression levels | reduction in cell motility | –
